This passage reports Kd results from patent publication US20230176070A1 (published 2023).

In this experiment the target is glutathione S-transferase (UniProt P08515 1-218 = GST). As to the kind of experiment: SPR. (In general: In SPR one partner is held on a chip, and binding of the other changes the refractive index at the surface.)

What is called Kd is the equilibrium constant for the complex coming apart.

Chain of glutathione S-transferase (P08515 whole entry): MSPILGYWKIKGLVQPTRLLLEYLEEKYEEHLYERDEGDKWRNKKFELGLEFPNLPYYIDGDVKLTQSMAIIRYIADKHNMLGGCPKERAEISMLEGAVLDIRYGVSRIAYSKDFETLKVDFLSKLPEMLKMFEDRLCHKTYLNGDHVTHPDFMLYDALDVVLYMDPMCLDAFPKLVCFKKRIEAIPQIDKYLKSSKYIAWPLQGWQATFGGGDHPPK

B1: G47 (VHH)
VHH: QVQLVESGGGLVQAGGSLRLSCAASERIFSNYAMGWFRQAPGKEREFVASIRGSGSQTSYADSVKGRFTISRDGAKDTVDLQMNSLKPEDTAVYYCSAKKYCGSTYNRAEGYDYWGQGTQVTVSS
Molecule B1 had a Kd of 17.6 nM.
